# According to patent publication US20130225503A1, “TEX14 PEPTIDES AS NOVEL ANTITUMOR AGENTS” (Baylor Licnensing Group, priority 2009, published 2013):
# T1: TX-CEP interaction (Homo sapiens, UniProt Q53EZ4)
# T1 construct: expressed in transfected cells; host or cells: HEK293T
# T1 sequence (Q53EZ4 157-236 limits assumed): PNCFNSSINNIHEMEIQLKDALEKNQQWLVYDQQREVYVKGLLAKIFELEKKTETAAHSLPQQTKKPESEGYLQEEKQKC
# T2: full-length mouse TEX14 (mouse, UniProt Q7M6U3 1-1450)
# T2 construct: whole, on cells; In the yeast two-hybrid assay it stood as a fusion with a GAL4 domain (pGBKT7 bait or pGADT7 prey vector)
# T2 sequence (looked up): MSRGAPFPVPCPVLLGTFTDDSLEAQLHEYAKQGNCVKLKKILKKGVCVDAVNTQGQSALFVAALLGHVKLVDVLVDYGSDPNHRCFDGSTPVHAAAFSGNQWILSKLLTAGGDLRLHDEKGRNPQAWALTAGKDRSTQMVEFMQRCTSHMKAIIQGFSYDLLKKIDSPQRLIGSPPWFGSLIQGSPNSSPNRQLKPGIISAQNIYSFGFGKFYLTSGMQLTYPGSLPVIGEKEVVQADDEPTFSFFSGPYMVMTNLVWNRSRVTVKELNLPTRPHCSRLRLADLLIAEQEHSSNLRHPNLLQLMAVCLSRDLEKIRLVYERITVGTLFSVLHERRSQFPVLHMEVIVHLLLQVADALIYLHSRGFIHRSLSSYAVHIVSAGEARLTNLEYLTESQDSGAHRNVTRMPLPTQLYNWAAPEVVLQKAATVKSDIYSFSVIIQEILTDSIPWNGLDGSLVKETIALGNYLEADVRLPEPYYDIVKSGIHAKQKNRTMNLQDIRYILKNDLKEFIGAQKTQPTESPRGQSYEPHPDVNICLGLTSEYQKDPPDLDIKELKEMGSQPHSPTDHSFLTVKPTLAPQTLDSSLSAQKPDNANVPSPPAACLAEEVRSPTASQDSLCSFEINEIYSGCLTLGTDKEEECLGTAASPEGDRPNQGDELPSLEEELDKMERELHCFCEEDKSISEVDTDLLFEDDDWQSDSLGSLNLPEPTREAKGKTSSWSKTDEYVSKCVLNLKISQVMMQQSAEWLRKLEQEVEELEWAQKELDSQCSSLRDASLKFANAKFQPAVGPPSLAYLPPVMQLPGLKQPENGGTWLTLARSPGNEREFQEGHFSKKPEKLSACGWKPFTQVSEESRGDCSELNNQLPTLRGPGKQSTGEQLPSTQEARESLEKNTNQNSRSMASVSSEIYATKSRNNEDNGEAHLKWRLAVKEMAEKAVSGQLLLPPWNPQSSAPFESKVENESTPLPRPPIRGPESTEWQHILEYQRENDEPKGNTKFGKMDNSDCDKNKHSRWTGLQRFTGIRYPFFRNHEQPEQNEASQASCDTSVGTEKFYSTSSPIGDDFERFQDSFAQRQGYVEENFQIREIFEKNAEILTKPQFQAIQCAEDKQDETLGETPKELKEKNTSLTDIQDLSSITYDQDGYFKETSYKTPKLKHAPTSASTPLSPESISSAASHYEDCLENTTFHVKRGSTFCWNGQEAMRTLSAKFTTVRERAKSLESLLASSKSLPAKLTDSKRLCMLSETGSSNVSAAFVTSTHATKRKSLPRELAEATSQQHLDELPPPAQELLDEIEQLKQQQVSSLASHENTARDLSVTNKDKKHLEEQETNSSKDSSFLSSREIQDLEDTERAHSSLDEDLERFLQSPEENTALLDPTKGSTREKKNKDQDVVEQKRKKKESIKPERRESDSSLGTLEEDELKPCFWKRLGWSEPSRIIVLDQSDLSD
# B1: full-length mouse CEP55 (other, UniProt Q8BT07 1-462, looked up)
# chain: MSSRSPKDLIKSKWGSRPSSSKSDTALEKFKGEIAAFKTSLDEITSGKGKMAEKGRSRLLEKIQVLEAEREKNVYYLLEKDKEIQRLKDHLRSRYSSSSLFEQLEEKTKECEKKQQLLESLSKETDVLKNQLSATTKRLSELESKASTLHLSQSMPANCFNSSMNSIHEKEMQLKDALEKNQQWLVYDQQREAYVKGLLAKIFELEKRTETAAASLTQQMKKIESEGYLQVEKQKYDHLLENAKKDLEVERQAVTQLRLELDEFRRKYEEARKEVEDLNQLLSSQRKADIQHLEEDKQKTERIQKLREESSIFKGKLEEERKRSEELLSQVRILYDSLLKHQEEQARVALLEQQMQACTLDFENEKLDRQNMQHQLYVILKELRKAKSQITQLESLKQLHGFTITEQPFPLQREPESRVKATSPKSPSAALNDSLVECPKCSVQYPATEHRDLLVHVEYCMK
# notes: whole, on cells; Yeast two-hybrid fusion with a GAL4 domain (pGBKT7 or pGADT7)
# What was measured:
# TX-CEP interaction = molecular target: T1, TX-CEP interaction; assay: Competition assay using the mammalian two-hybrid system, TX-CEP55 interaction; assay type: cell-based; details: pcDNA3 overexpression in HEK293T cells; FIG. 6C, FIG. 7 right
# Excerpt: A modified form of the CheckMate/Flexi vector mammalian two-hybrid system (Promega) was used to study the interactions of proteins in mammalian cells. A pGL4Cherry (mCherry/GAL4UAS/Hygro) vector was engineered from the pGL4.31 (luc2P/GAL4UAS/Hygro) vector by replacing the Luc2P firefly luciferase reporter sequence with the mCherry sequence. The pACT vector expresses a protein of interest, “X,” fused to a transcriptional activation domain (VP16-AD) and the pBIND vector expresses the other protein of interest, “Y,” fused to a DNA-binding domain (GAL4-BD) and Renilla luciferase by separate promoters. […]
# Sequences encoding the truncated TEX14, CEP55, ALIX, or TSG101 fragments were cloned into the multiple cloning regions of the pACT and pBIND vectors. Some exemplary constructs used are summarized in FIGS. 6A and B. pACT (protein X), pBIND (protein Y), and pGL4Cherry (mCherry/GAL4UAS/Hygro) were transiently cotransfected into HEK293T cells using Fugene 6/HD transfection reagent, and the cells were examined 44 h later for red fluorescence by using an Axiovert 40 CFL microscope (Carl Zeiss). […] The cells were lysed by using Renilla luciferase assay reagent (Promega), and red fluorescence and Renilla luciferase were measured by using a Polar Star Omega microplate reader (BMG LabTech). […]
# full-length mouse TEX14 = molecular target: T2, full-length mouse TEX14; assay: yeast two-hybrid, full-length proteins, oxygen biosensor and selection plates
# Experimental: (A) Immunoprecipitation (IP) of FLAG-TEX14 and/or MYC-CEP55 from HEK293T cells, followed by Western blot analysis with the antibodies as shown. Immunoprecipitation of protein G (lanes G) is the control. (B) Yeast two-hybrid analyses using vectors encoding full-length mouse TEX14, MKLP1, CEP55, and positive and negative controls. The relative ratios of TEX14-TEX14, TEX14-MKLP1, and TEX14-CEP55 interactions were determined by using an oxygen-biosensor system. (C) Yeast two-hybrid interactions of mouse and human full-length TEX14 and CEP55. (a) Yeast were stably transformed with vectors and plated for yeast two-hybrid analysis as depicted. SV40 T antigen with p53 and SV40 T antigen with lamin C were used as positive and negative controls, respectively. (b) Interactions between the two-hybrid proteins are evident by colony growth and blue color on selection plates.
# (§1) Protein-protein interactions were evaluated by using the Matchmaker Two-Hybrid System 3 (Clontech) as described previously (10). Mouse full-length TEX14 and MLKP1 were previously subcloned into the Matchmaker GAL4 two-hybrid pGBKT7 and pGADT7 vectors (10). The constructs of full-length mouse and human CEP55, human TEX14, truncated mouse CEP55-C1, and truncated mouse TEX14-T1, T2, T1[…]T2, T3, T4, and T4-C were made by using the Matchmaker GAL4 two-hybrid pGBKT7 bait vector and pGADT7 prey vectors. Some Y2H interactions were examined with an oxygen biosensor assay (Clontech PT3584-1) that measured the fluorescence emitted by an oxygen-sensing platform that detects GAL4.
# Since both CEP55 and TEX14 interact with MKLP1 (10, 22), it was determined whether CEP55 and TEX14 are components of the intercellular bridge as direct or indirect interactors. The inventors first overexpressed full-length FLAG-TEX14 and MYC-CEP55 constructs in HEK293T cells (FIG. 2A). […] Likewise, when the inventors immunoprecipitate with anti-MYC antibody, they immunoprecipitate both MYC-CEP55 and FLAG-TEX14.
# full-length mouse CEP55 = molecular target: B1; assay: yeast two-hybrid
# Experimental: as §1
# To determine the relevance of this GPPX3Y motif as it relates to the interaction of TEX14 with CEP55, we performed yeast two-hybrid assays with mouse TEX14 amino acids 756 to 815 that contain the GPPX3Y motif (FIG. 3A). These 60 amino acids interacted with full-length CEP55 (FIGS. 3B and C). Conversely, an 80-amino-acid fragment of CEP55 (C1) that contains the hinge region interacted with full-length TEX14, the C terminus (T3), and GPPX3Y-containing fragment (T4) but not a shorter sequence that lacked the GPPX3Y motif (T4-C) (FIG. 3A to C). Thus, similar GPPX3Y-containing regions of TEX14, ALIX, and TSG101 interact with the hinge region of CEP55.
effect of overexpression on TX-CEP interaction (TX-CEP interaction),binding result (full-length mouse TEX14),Molecule,other results
fails to disrupt,–,"ALIX: truncated ALIX region including the GPPX3Y motif, pcDNA3 overexpression vector (ATAPSPVGAGTAAPAPSQTPGSAPPPQAQGPPYPTYPGYPGYCQMPMPMGYNPYAYGQYN)",–
fails to disrupt,–,"TSG: truncated TSG101 region including the GPPX3Y motif, pcDNA3 overexpression vector (MIVVFGDEPPVFSRPISASYPPYQATGPPNTSYMPGMPGGISPYPSGYPPNPSGYPGCPY)",–
–,binds,B1,–
–,binds,"full-length mouse MKLP1 (other, UniProt E9Q5G3 1-953, looked up, whole, on cells; Yeast two-hybrid fusion with a GAL4 domain; also called MLKP1) MKSAKAKTVRKPVIKKGSQTNLKDPVGVYCRVRPLSFPDQECCVEVINSTTLQLHTPEGYRLNRNGDYKETQYSFKRVFGTHTTQKELFDVVANPLVDDLIHGKNGLLFTYGVTGSGKTYTMTGSPGSGGLLPRCLNMIFNSIGSFQAKRYVFKSNDRNSMEIQCEVDALLERQKREALPIPKTPSSKRQADPEFADMINVQEFCKAEEVDEDSVYGVFVSYIEIYNNYIYDLLEEVQFDPIKPKLPQSKTLREDKNHNMYVAGCTEVEVKSTEEAFEVFWRGQKKRRIANTHLNRESSRSHSVFSIKLVQAPLDADGDNVLQEKEQITISQLSLVDLAGSERTNRTKAEGNRLREAGNINQSLMTLRTCMEVLRENQTYGTNKMVPYRDSKLTHLFKNYFDGEGKVRMIVCVNPKAEDYEESLQVMRFAEVTQEVEVARPVDKVICGLTPGRRYRNLPRGGPVGDEPLVPEVILQSFPPLPPCKLLDINDEETLPKLADTLEKRHHLRQLMTEDLNKKCLAFKALLKEFDNSLSNKENYVQEKLNEREKVISGQKLEIERLEKKNKTLEYKIEILEKTTTIYEEDKRNLQQELESQNQKLQRQFSDKRRLEARLQGMVTETSMKWQKECERRVAATQLEMQNKLWVKDEKLKQLKAIVTEPKPEKPERPSRERDREKIIPRSVSPSPLPLSSNNIAQISNGQQLMSQPQLHRRSNSCSSISVASCISEWEQKLSPFSTPVNVTSLARHRQQEPGQSKTCIVSDRRRGMCWTEGREMVPTFSSEIGVEEDHCRRNTPIPVRHRRSRSAGSRWVDHKPASNVQTETVMQPHVPHAITVSVANEKALAKCEKYMLTHQELASDGEIQTKVIKGDVYKTRGGGQSVQFTDIETLKQELPTGSRKRRSSTLAPAQPDGTESEWTDVETRCSVAVEMRAGSQLGPGYQHHAQPKRKKP",–
–,–,"mouse TEX14 amino acids 756 to 815, GPPX3Y-containing fragment (T4) (peptide, UniProt Q7M6U3 756-815, looked up, range 756-815; Yeast two-hybrid GAL4 fusion; also called TEX14-T4) EVEELEWAQKELDSQCSSLRDASLKFANAKFQPAVGPPSLAYLPPVMQLPGLKQPENGGT",binding result (full-length mouse CEP55): binds
